Measurements taken from US20120244165A1 (published 2012).
No end group written: not given here.

Legend:
[1] = target: T1, peptide 12-20 with alanine at aa 16 (A16) (also: biotinylated (position not given here)); assay: ELISA on biotinylated peptides on streptavidin plates
T1 construct: Second library; the entry already carries the alanine
T1 peptide: VHHQALVFF
Procedure: (§1) Epitope mapping of the monoclonal antibody mACI-01-Ab7 C2 was performed by ELISA using three different peptide libraries. One library comprises a total of 33 biotinylated peptides covering the complete amino acid (aa) sequence of Aβ1-42 (produced by Mimotopes and purchased from ANAWA Trading SA), the second library contains biotinylated peptides using peptide 12 (aa12-20 of Aβ) from the first peptide library and substituting each amino acid in the sequence by an alanine (see table 41 below), and the third library contains biotinylated peptides 13, 14, or 15 (aa 13-21, 14-22 or 15-23 of Aβ) and substituting in each case the last amino acids to an alanine or to a glycine for aa 21 which is already an alanine (see table 5 below). A biotinylated complete Aβ1-42 peptide was used as positive control (Bachem). Epitope mapping was done according to the manufacturer's (Mimotopes) instructions. Briefly, Streptavidin coated plates (NUNC) were blocked with 0.1% BSA in PBS overnight at 4° C. After washing with PBS-0.05% Tween 20, plates were coated for 1 hour at RT with the different peptides from the library, diluted in 0.1% BSA, 0.1% Sodium Azide in PBS to a final concentration of 10 μM. After washing, plates were incubated for 1 hour at RT with the mACI-01-Ab7 C2 antibody or an isotype control mouse IgG2b antibody, diluted to 10 μg/ml in 2% BSA, 0.1% Sodium Azide in PBS. Plates were washed again and incubated with alkaline phosphatase conjugated goat anti mouse IgG for 1 h at RT. After final washing, plates were incubated with phosphatase substrate (pNPP) and read at 405 nm using an ELISA plate reader.
(§2) It was shown that the monoclonal antibody mACI-01-Ab7 C2 bound specifically to peptides 12, 13, 14 and 15 of the first peptide library. […] A second library with alanine substitutions was used to determine the critical aa for binding to peptide 12-20 ([…]) (SEQ ID NO: 29).

[2] = target: T2, peptide 12-20 with alanine at aa 17 (A17) (also: biotinylated (position not given here)); assay: as above
T2 construct: Second library; the entry already carries the alanine
T2 peptide: VHHQKAVFF
Procedure: as §1, §2

[3] = target: T3, peptide 12-20 with alanine at aa 19 (A19) (also: biotinylated, position not given here); assay: as above
T3 construct: Second library; the entry already carries the alanine
T3 peptide: VHHQKLVAF
Procedure: as §1, §2

[4] = target: T4, peptide 12-20 with alanine at aa 20 (A20) (also: biotinylated, position not given here); assay: as above
T4 construct: Second library; the entry already carries the alanine
T4 peptide: VHHQKLVFA
Procedure: as §1, §2

Aβ1-42 monomers = target: T5, Aβ1-42 monomers (UniProt P05067 672-713); assay: binding affinity ELISA on plates coated with amyloid, alkaline phosphatase anti-mouse IgG detection
T5 construct: domain: Aβ1-42; Unlabelled monomeric preparation (HFIP film, DMSO, PBS); also called Amyloid monomers; Aβ1-42 monomeric peptide
T5 sequence (P05067 672-713 limits assumed): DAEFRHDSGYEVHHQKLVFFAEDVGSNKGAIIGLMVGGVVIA
Procedure: (§3) In order to evaluate the specificity of mACI-01-Ab7 C2 to different stages of polymerized amyloid protein, monomeric and polymeric soluble amyloid, particularly, amyloid β (Aβ) protein, and fibrillic amyloid, an ELISA coated with these different stages of polymeric beta-amyloid was performed. Monomers were prepared according to a modified method published by⁷, polymeric soluble amyloid, particularly, amyloid β (Aβ) according to⁸, whereas fibers were performed by incubation of amyloid (Bachem, Switzerland) with a final concentration of 1 μg/μl in Tris/HC1 pH 7.4 at 37° C. for 5 days followed by a centrifugation step (10,000 rpm for 5 minutes). Then amyloid polymers were coated on an ELISA plates with a final concentration of […] and binding affinity ELISA by using an anti-mouse IgG monoclonal antibody (Jackson ImmunoResearch Laboratories, Inc.) labelled with alkaline phosphate was performed.

Aβ1-42 fibers = target: T6, Aβ1-42 fibers (UniProt P05067 672-713); assay: as above
T6 construct: domain: Aβ1-42; Aggregated, fibrillar state of Aβ1-42 (incubated for days at 37 °C); number of peptide copies not defined; also called Amyloid 1-42 fibrils; fibrillar Aβ1-42
T6 sequence (P05067 672-713 limits assumed): as above
Procedure: as §3

Aβ1-42 oligomers = target: T7, Aβ1-42 oligomers (UniProt P05067 672-713); assay: as above
T7 construct: domain: Aβ1-42; Soluble oligomeric preparation (SDS-induced); number of copies not defined; also called amyloid oligomers; polymeric soluble amyloid β (Aβ) protein
T7 sequence (P05067 672-713 limits assumed): as above
Procedure: as §3

- IC50 (Aβ1-42 monomers): 8.3 nM
- IC50 (Aβ1-42 fibers): 5.27 nM
- IC50 (Aβ1-42 oligomers): 2.53 nM
B1: mACI-01-Ab7 C2 (antibody, mouse IgG2b, kappa, V domains shown)
VH: EVQLVESGGGLVQPGGSLKLSCAASGFTFSSYGMSWVRQTPDKRLELVASINSNGGSTYYPDSVKGRFTISRDNAKNTLYLQMSSLKSEDTAMYYCASGDYWGQGSTLTVSS
VL: DVVMTQTPLSLPVSLGDQASISCRSSQSLVYSNGDTYLHWYLQKPGQSPKLLIYKVSNRFSGVPDRFSGSGSGTDFTLKISRVEAEDLGVYFCSQSTHVPWTFGGGTKLEIKR
notes: also called mC2; Mouse C2
- binding result [1]: no binding (tested: antibody at 10 µg/ml)
- binding result [2]: no binding (tested: antibody at 10 µg/ml)
- binding result [3]: no binding (tested: antibody at 10 µg/ml)
- binding result [4]: no binding (tested: antibody at 10 µg/ml)
